From patent US20110027269A1
The star is where a group is joined. Biotin = O=C1N[C@H]2[C@H](CS[C@H]2CCCCC(=O)*)N1

Target: 14-3-3 proteins present within the KLCCM
Assay: cell-based or functional assay

MMP-1 expression in dermal fibroblasts treated with KLCCM (western blot, MMP-1/β-actin ratio): 68.8 % reduction
Binder: Biotin-PHCVPRDLSWLDLEANMCLP-OH (cysteine pairing not given here) [biotinylated R18]
